{
  "source": "IntAct's records for PubMed 26972053",
  "parents": {"B1": {"name": "Cytosolic arginine sensor for mTORC1 subunit 1 (Homo sapiens), Q8WTX7 (parent)", "chain": "MELHILEHRVRVLSVARPGLWLYTHPLIKLLFLPRRSRCKFFSLTETPEDYTLMVDEEGFKELPPSEFLQVAEATWLVLNVSSHSGAAVQAAGVTKIARSVIAPLAEHHVSVLMLSTYQTDFILVREQDLSVVIHTLAQEFDIYREVGGEPVPVTRDDSSNGFPRTQHGPSPTVHPIQSPQNRFCVLTLDPETLPAIATTLIDVLFYSHSTPKEAASSSPEPSSITFFAFSLIEGYISIVMDAETQKKFPSDLLLTSSSGELWRMVRIGGQPLGFDECGIVAQIAGPLAAADISAYYISTFNFDHALVPEDGIGSVIEVLQRRQEGLAS", "partner": "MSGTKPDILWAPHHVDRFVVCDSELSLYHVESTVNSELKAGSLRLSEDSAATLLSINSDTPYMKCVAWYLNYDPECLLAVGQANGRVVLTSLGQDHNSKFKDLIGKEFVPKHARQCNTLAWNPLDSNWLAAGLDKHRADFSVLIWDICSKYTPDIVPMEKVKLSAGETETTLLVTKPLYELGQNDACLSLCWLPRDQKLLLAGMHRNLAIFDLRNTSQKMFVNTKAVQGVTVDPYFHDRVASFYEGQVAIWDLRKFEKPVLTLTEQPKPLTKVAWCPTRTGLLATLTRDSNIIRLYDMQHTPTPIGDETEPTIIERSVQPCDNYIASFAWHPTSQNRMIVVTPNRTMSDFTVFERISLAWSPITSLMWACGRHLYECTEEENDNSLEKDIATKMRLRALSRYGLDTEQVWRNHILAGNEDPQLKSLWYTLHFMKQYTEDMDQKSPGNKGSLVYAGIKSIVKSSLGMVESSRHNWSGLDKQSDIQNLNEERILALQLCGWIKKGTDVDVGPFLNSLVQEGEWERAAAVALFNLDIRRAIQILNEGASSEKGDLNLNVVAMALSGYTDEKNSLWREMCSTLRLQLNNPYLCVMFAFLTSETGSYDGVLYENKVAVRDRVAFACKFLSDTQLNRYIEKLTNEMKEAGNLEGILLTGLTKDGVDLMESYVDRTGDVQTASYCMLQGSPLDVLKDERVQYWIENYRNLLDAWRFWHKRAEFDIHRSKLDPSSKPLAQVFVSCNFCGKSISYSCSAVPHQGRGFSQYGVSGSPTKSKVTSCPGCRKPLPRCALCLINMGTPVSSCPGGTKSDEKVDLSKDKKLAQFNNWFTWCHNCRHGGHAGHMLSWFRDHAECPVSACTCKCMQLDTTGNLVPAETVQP"}},
  "data": [
    {"variants_of": "B1", "conditions": "with mios_human MIOS", "values": [
      {"variant": "MELHILEHRVRVLSVARPGLWLYTHPLIKLLFLPRRSRCKFFSLTETPEDYTLMVDEEGFKELPPSEFLQVAEATWLVLNVSSHSGAAVQAAGVTKIARSVIAPLAEHHVSVLMLSTYQTDFILVREQDLSVVIHTLAQEFDIYREVGGEPVPVTRDDSSNGFPRTQHGPSPTVHPIQSPQNRFCVLTLDPETLPAIATTLIDVLFYSHSTPKEAASSSPEPSSITFFAFSLIEGYISIVMDAETQKKFPSDLLLTSSSGELWRMVRIGGQPLGFDECGAVAQIAGPLAAADISAYYISTFNFDHALVPEDGIGSVIEVLQRRQEGLAS", "note": "[I280A]", "effect of a mutation on the interaction": "disrupting interaction strength"}
    ]}
  ]
}
